Experimental data reported in the supplement of paper PMC9170038.

System: K4 kissing-loop RNA reporter
Experiment: apparent KD of K4 kissing-loop reporter; higher = weaker reporter binding
Conditions: Eterna round: R107
Procedure: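 RNA-MaP round R107: designed RNA switches with theophylline, tryptophan, arginine or FMN aptamers are transcribed on-chip within common flanks. They are titrated with a labelled K4 kissing-loop RNA reporter in RNA-MaP buffer (100 mM Tris pH 7.5, 80 mM KCl, 4 mM MgCl2), without ligand or with the indicated ligand. Median apparent KD per design.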

[1] = input ligand: theophylline 20 uM
[2] = input ligand: tryptophan 2.4 mM
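Further: bound reporter read as fluorescence of individual clusters on recovered sequencing chips by microscopy, with normalized cluster intensities fitted with a binding model.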

Sequence	apparent KD of K4 kissing-loop reporter (input ligand: FMN 200 uM) [nM]	apparent KD of K4 kissing-loop reporter (input ligand: arginine 13.2 mM) [nM]	apparent KD of K4 kissing-loop reporter (input ligand: none) [nM]	apparent KD of K4 kissing-loop reporter [1] [nM]	apparent KD of K4 kissing-loop reporter [2] [nM]
GAUUAAUAAGAGGAUACCAGUACUAAUAAAGUACAUUAAUAGUAGAGUGAUGUUCUAAAGUACCCUUGGCAGCUUAGAGUAAGUU [#08 K4 Theophylline B Exclusion]	128	224	157	226	97.5
GUCGGCCGCGCGCAAGCGCGGCCGGCCGAUACCAGCGCGCCGGUGCGCCCUUGGCAGCGGCACCGAGUGAUGUUCGGUCAGACGA [#2 Same State - Theophylline A Attempt #6 (HarryS)]	407	161	308	113	234
CAUGCCAUGAUCCUCCUGGUAUCUCCUGAUACCAGCGUGCUGACACGCCCUUGGCAGCAGGAGUCGAGAGUGAUGUUGUCGAGAA [KL-SSTheo-A9 #analogue]	568	174	184	373	328
AAGUGUUCUAGUGAUACCAGACAUUUCAAUUACAUUAAUAUAGCUAAGUGAUGUUUAGCAGUCCCUUGGCAGCACUAUUUCACUA [JR_SSTheophyB_Sub016]	130	144	135	149	131
GGGCUGGUGCUAGGAUAUGCGAUGAAUGCUCAGGAAACCUUGAGUCCGCAGUGAUGUUGCGGCACCGCAGAAGGAGCUUAGGCUC [Esbequ]	146	263	222	292	172
GCCCGGUGAAUCCGCCAAGAUAGACACCGUCGAGGACCGGUACGGCCGCCACUCGAGUACGAGUGAUGUUCGUACGCGGUGUCGA [Onedzate]	606	728	657	431	189
CUGUACAUCUCGGCCGCCACUGACAUGAGUGAUGUUCAUGUACAUGAGUGAUGUUCAUGUUCGGCCAGGACCGGGAGGUGUGCAG [KL-SSTryp-B2 #analogue #double KL]	352	184	274	271	216
CCAGGACGAUGAGGAUGAUGAAUUACUGAAGGAGCGCAUAUGGUUGCAGGUAGGUCGCGGUGAACAAGUAUAGUGAUGUUAUGCC [SSArgA.V]	704	424	693	519	631
UCUGUUUCGAUGGAUACCAGUCGGCGAAUCACAGCUAUUAGCCUAGUGAUGUUAGGAUCGGACCCUUGGCAGCCAAUGGAUGCGG [theeternabot_sameState_KL_Theo_B_14]	921	750	1240	1270	732
CCGGUUCCAACGCUGACUGAAGAACAUGAUACCAGUCGAGGACUCGACCCUUGGCAGCAUUAUAGAGUGAUGUUCGCUUCAGAAA [theeternabot_sameState_KL_Theo_A_15]	157	140	189	367	117
UACAGGGAUAGUGAUGUUAUCCCAUGUGAUACCAGUGCCAUCCAACACCCUUGGCAGCAUACGGGCAGUGAUGUUGUUCUUGGUU [Exclusion Theophylline A GF 13]	96.1	85.4	93.7	87.1	88.5
AAGGUCACCACUACAGUGAUGUUGUGGGAGCAGGAUAUGCAGAAAUGCAGAAGGGCUCGCUCCCGGUGACCGAAUGAAACAUUCA [Omei KL FMN A SS A v5]	1380	636	981	765	846
ACGCUGGAUGAAUAACAUCUAGCGAAAAUUCGAGGACCGGUACGGCCGCCACUCGAGCUAACUGCGAGUGAUGUUCGAUAAUAAA [Mat - Mod of OpenEnded 3 - D6]	196	374	309	497	72.1
UUAUUAUAUUGUAAUGAUAUAGAAACCGAAGGAGCGACAUAAAAGUCAGGUAGGUCGCGGUGUACUCAGUGAUGUUGAGAGUAUU [JR_SSArginiA_Sub013]	141	265	172	271	100
UUCUUGAUGGAAACAUCGAGGAUCACUGAUACCAGUAUCGAUAGAUACCCUUGGCAGCAGUGUCGGUGGUCACGAGUGAUGUUCG [Ex Theophylline A K4 12]	718	731	811	719	787
UUUGUAUAGGGAAGGAGCGUGAAUGAUAAAGAAUAUAGUGAUGUUAUAUAGAAGAAAGAAUCACAGGUAGGUCGCCCGGAGGAGG [SSArgB.H]	599	491	552	450	361
AAGGGCGGAACUUCCUCGCCGGAUAGAGAUACCAGCCCAGCAAAGGGCCCUUGGCAGCUCACUGACCUCAGUGAUGUUGAGGUUC [Riesrevere]	345	241	301	216	296
UGUCAUUGGUCGGCCGCCACUCCAUAACGAGUGAUGUUCUAAAAGACGGAUCGAAAGAUCUGUCGGAGGACCGGGACCGAUGACU [FiskerMod 6 - Jieux - Same State - Tryptophan B]	558	308	622	274	1140
UUCUUGAUGGAAACAUCGAGGAUUACUGAUACCAGUAUCGAUAGAUACCCUUGGCAGCAGUAUCGGUGAUCACGAGUGAUGUUCG [Ex Theophylline A K4 11]	669	576	785	757	607
AGUGAUGUGGGAAGGAGCGGUUAAUGAAUUCAGUGAUGUUGAAGUGAUGCUGAAAUGAUGUGCCAGGUAGGUCGCCUAGAUGUUA [KL-XARG B28]	308	164	245	164	203
AACUGUCAAGGCCAACAUUACUGAGGUGAUACCAGCAUCGAAAGAUGCCCUUGGCAGCACCAACUUGCAGUGAUGUUGCAAGUAA [BrourdMod 13 - Jieux - Exclusion - Theophylline A]	231	203	234	307	225

Sequence	apparent KD of K4 kissing-loop reporter (input ligand: FMN 200 uM) [nM]	apparent KD of K4 kissing-loop reporter (input ligand: arginine 13.2 mM) [nM]	apparent KD of K4 kissing-loop reporter (input ligand: none) [nM]	apparent KD of K4 kissing-loop reporter [1] [nM]	apparent KD of K4 kissing-loop reporter [2] [nM]
GUGCGCGGUGCGGCCGCCACUCGCAUGAGAGUGAUGUUCUCGGGACGGACGGAAGUCCGUCAUGUGAGGACCGGGCAUGGCUGCG [#2 Same State - Tryptophan B Attempt #10 (HarryS)]	894	344	416	497	453
AGCGAUGUUUUCUCUAAGAGUGAUGUUUUUCGAGGACCGGUACGGCCGCCACUCGAAUAAAGAGUGUGGUAGUGAGCUGUUGACU [qqmullin]	622	256	451	442	278
UGAUACCAGACGGCCGCCACUCCUAGUGAUGUUAGGAACCUAAAAUAGCAUGUCAAAGACAUGCGGAGGACCGGGUCUGGUAUCU [TrypBX 23 #SwitchBubble #Palindromic #StaticStem]	111	92.1	104	90.3	254
GUCCAUGUCCUCAUUCGUGCACUGGACACCAAGGAUAUGUUUAUGGACAGAAGGUGGUUGGGUCAGUGAUGUUGAUAUAAUUAGU [theeternabot_exclusion_KL_FMN_A_24]	208	276	278	406	194
GUAUCGCUAGGAGGAUAUUUCGUUUUUCAUAGCAAUGGCUGUGCGGAGUGAUGUUCCGAUUUACCGGAAGAAGGCCUAGUGAUAC [FMN B 27]	107	165	180	158	161
UAUAUGCAGUGAUGUUGCGGCACACUUCCGAAGGAUAUGUCCGGUGACAGAAGGUCGGUCCAUGGGACAUCACGUGUGCUUGAUG [theeternabot_exclusion_KL_FMN_A_15]	542	536	613	529	458
GGUGGCUUACAAAGCUCAGUGAUGUUGAGCCGAGGACCGGUACGGCCGCCACUCGUUUGCCAUUCACUACAGUUACAAGCACUAG [theeternabot_exclusion_KL_Trp_A_2]	269	217	279	282	292
AAAGAUCUUCUAGAAACUAGAAGAUCAAGAGAGGAUAUCCGAAUUCGGAGAAGGCUCACUAAGUGAUGUUUGGAGGGAAUCCCAA [AK1 SS FMN A]	1250	805	1670	1290	1360
ACGUAGUUCUAGGAUACCAGCCAAGGUCGCCAGGACAAAAGUCCUGGCGCCAGUGAUGUUGGCCCUUGGCAGCCUAGAACUACGA [Omei KL Theo B Exc B v6]	195	176	176	174	203
AGGAGUGAUGUUCCUACAUACACGGUCCGACGAGGACCGGUACGGCCGCCACUCGCGUCCCAGUGAUGUUGGGAUUUGGCGUACA [Exclusion Tryptophan A Gf 16]	162	168	180	141	144
AUGGCACCUGCGGCCGCCACUCACUCCGGGCUGCUGGCCAGUGAUGUUGGUACGGCUGCCGGUUAGAGGACCGGGCAGGAGCUAA [Rienisdite]	88.8	103	107	97.8	90.7
AAGUGUGUGGCGGCCGCCACUAGAAUCCAGUGAUGUUGGAGUUAUCAUAUAAUUGAUAAUCAACAUAGGACCGGGCCAUAUAGAA [Same State - Tryptophan B (Freestyle 6)]	602	441	540	511	416
GCGCGGGUCAGUGAUGUUGACCCUCGGAGACGAGGACCGGUACGGCCGCCACUCGUCCGCGCAGCUGAGGCAAAAGCCUCGGCAA [Omei KL Tryp A SS B v5]	155	142	140	131	103
UGAGAUAUGAGGGAUACCAGCCAUAAGGAAAGUGUGAUGAGUGAUGUUCUGACAAGCCAAGGCCCUUGGCAGCUUUAAUAGCAUC [whbob_SS_Theo_B_th77]	328	191	280	167	267
UUUAUAAAGUCGGCCGCCACUGGAUUUAUAUUUGUUUAAUCUGGAUCAAAGUGAUGUUUUGAGUCCAGGACCGGGACAUUUGUUA [JR_ExcTryptoB_Sub002]	125	123	124	135	232
AUUAAUUUCAGAGGAUAUGCUUAAUUGAUUAAAUAUAAUCUAUUAUGCAGUGAUGUUGCAUUUUUUGCAGAAGGCUGAUUUAUAA [JR_SSFMNB_Sub017]	136	500	506	485	385
CCAUUCAGUUACGAUACCAGUCUAAUAUAUUUGAUCAAAACCCUCGCCGAGUGAUGUUCGGACCCUUGGCAGCGUCUGGGACAGG [xxcetmullin]	481	399	421	379	344
UGUCAUUGGUCUGAUACCAGUACCCUUGGCAGCCAAGGAGUGAUGUUCCAAGGAUACCAGUGCCCUUGGCAGCAGACCGAUGACU [TheoBS 12 #DoubleAptamer #SwitchBubble]	920	563	1120	613	901
UAAGGGUUAUGUCCUCGGUGCGAAGAGCUCCGAGGACCGGUACGGCCGCCACUCGGAAGUUCUGAGUGAGGGAGUGAUGUUCCCU [Skye_Ex_TA]	312	291	359	315	306
ACACAGAGUUGCCGAGUGAUGUUCGGCUUACGAGGACCGGUACGGCCGCCACUCGUUACUCUGUGUUUUGGACACCAAGGCGUAG [Edvemaquan]	565	492	675	497	169
GCCGUAGAUUGAAGGAGCGGGCCGUAGUGAUGUUACGCCAAGUUGUCUUUUAUUGAUGUGGCCCAGGUAGGUCGCAAUCUACGGC	300	287	311	217	273
